Assay results taken from patent publication US5985836A, “Alpha-1 proteinase inhibitor binding peptides” (Bayer Corporation, priority 1998, dated 1999).
Ends that are not written are not given here.

Biological target: T1, A1PI (Homo sapiens, UniProt P01009)
T1 construct: Human plasma is currently the only approved source of therapeutic AlPI
Assay: A1PI binding on peptide-resin column, injection of 1 mg A1PI in equilibration buffer
Conditions: for Percent AlPI Eluted by Fraction, 1M NaCl / Percent AlPI Eluted by Fraction, 2% Acetic Acid / Percent AlPI Eluted by Fraction, Flowthrough: sequence order, 1 mg AlPI; for % of Total A1PI Eluted by Fraction (Based on Absorbance at 280 nm), 1M NaCl / % of Total A1PI Eluted by Fraction (Based on Absorbance at 280 nm), 2% Acetic Acid / % of Total A1PI Eluted by Fraction (Based on Absorbance at 280 nm), Flowthrough: 1 mg A1PI; for Percent A1PI Eluted by Fraction Based on Absorbance at 280 nm, 1M NaCl / Percent A1PI Eluted by Fraction Based on Absorbance at 280 nm, 2% Acetic Acid / Percent A1PI Eluted by Fraction Based on Absorbance at 280 nm, Flowthrough / Percent A1PI Eluted by Fraction, 1M NaCl / Percent A1PI Eluted by Fraction, 2% Acetic Acid / Percent A1PI Eluted by Fraction, Flowthrough: 1 mg A1PI in equilibration buffer
Experimental: Confirmatory binding assays were performed in a column chromatographic format on a microbore HPLC using individual peptide sequences synthesized directly onto the Toyopearl 650 M Chelate resin which had been modified with Totda followed by an alanine residue (A-Totda-Toyopearl), at a final substitution density of 0.1 mmole/g resin. The resin was packed into 0.4×5 cm columns (Thomson, Springfield, Va.) and tested on the Michrom HPLC system (Michrom BioResources, Auburn, Calif.). The elution program for all trials utilized the following method. The column was pre-equilibrated with equilibration buffer (as above). 1 ml of sample was injected and allowed sufficient time to flowthrough the column using equilibration buffer. The column was then washed with step elutions of 1M NaCl and 3M NaCl in equilibration buffer. The column was exposed to equilibration buffer with 0.1M NaCl. Any remaining protein was eluted with elution buffer (2% by volume glacial acetic acid in water).
A Gilson FC204 fraction collector at the HPLC outlet collected individual eluates for further analysis. Fractions collected from the 2% acetic acid eluates were neutralized with 2M Tris, pH 10.5 to bring the pH to neutrality. The protein samples were reconstituted in equilibration buffer unless otherwise stated. The samples were analyzed by the integration of the absorbance at 280 nm or by immunonephelometry. The specific method of determination is presented for each figure.
Tables 2 and 3 present the elution profiles for 19 sequences based on the injection of 1 mg AlPI in equilibration buffer at 4° C. and 20° C., respectively. The columns were run at a constant flow rate of865 μl/min (413 cm/hr) or 523 μl/min (250 cm/hr). No dependence of the elution profile with flow rate was found. The Percent AlPI Eluted by Fraction represents the amount eluted in the flowthrough, 1M NaCl wash, and 2% acetic acid fractions relative to the total AlPI eluted. The percentages are based on either the integration of the peak areas at […]

[1] = VIWLVR N-terminal point mutations, 4° C.

T1 sequence (P01009 25-418): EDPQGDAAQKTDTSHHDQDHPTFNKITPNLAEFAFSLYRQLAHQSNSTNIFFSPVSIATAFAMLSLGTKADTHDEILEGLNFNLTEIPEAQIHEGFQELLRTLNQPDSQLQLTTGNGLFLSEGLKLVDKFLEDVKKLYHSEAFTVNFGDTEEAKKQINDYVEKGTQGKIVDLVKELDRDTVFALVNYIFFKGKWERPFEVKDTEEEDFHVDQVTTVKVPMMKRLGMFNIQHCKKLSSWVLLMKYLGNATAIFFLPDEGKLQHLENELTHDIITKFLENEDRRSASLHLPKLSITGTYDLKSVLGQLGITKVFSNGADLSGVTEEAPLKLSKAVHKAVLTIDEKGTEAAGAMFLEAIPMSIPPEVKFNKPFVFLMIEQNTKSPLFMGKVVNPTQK

Row | Substance | % of Total A1PI Eluted by Fraction (Based on Absorbance at 280 nm), 1M NaCl [1] | % of Total A1PI Eluted by Fraction (Based on Absorbance at 280 nm), 2% Acetic Acid [1] | % of Total A1PI Eluted by Fraction (Based on Absorbance at 280 nm), Flowthrough [1] | also measured
1 | Ac-RVLFIV: N-terminal acetylated Ac-RVLFIV (listed under SEQ ID No:61) | – | – | – | Percent AlPI Eluted by Fraction, 1M NaCl (4° C.): 11%; Percent AlPI Eluted by Fraction, 2% Acetic Acid (4° C.): 13%; Percent AlPI Eluted by Fraction, Flowthrough (4° C.): 76%; Percent AlPI Eluted by Fraction, 1M NaCl (20° C.): 31%; Percent AlPI Eluted by Fraction, 2% Acetic Acid (20° C.): 50%; Percent AlPI Eluted by Fraction, Flowthrough (20° C.): 19%
2 | Ac-V I F L V R: N-terminal acetylated sequence Ac-VIFLVR (listed under SEQ ID No:37) (not fully specified (C-terminus); printed as Ac-VIFLVR) | – | – | – | % of Total A1PI Eluted by Fraction (Based on Absorbance at 280 nm), 1M NaCl (VIFLVR point mutations, 4° C.): 2%; % of Total A1PI Eluted by Fraction (Based on Absorbance at 280 nm), 2% Acetic Acid (VIFLVR point mutations, 4° C.): 22%; % of Total A1PI Eluted by Fraction (Based on Absorbance at 280 nm), Flowthrough (VIFLVR point mutations, 4° C.): 76%; % of Total A1PI Eluted by Fraction (Based on Absorbance at 280 nm), 1M NaCl (VIFLVR point mutations, 20° C.): 0%; % of Total A1PI Eluted by Fraction (Based on Absorbance at 280 nm), 2% Acetic Acid (VIFLVR point mutations, 20° C.): 0%; % of Total A1PI Eluted by Fraction (Based on Absorbance at 280 nm), Flowthrough (VIFLVR point mutations, 20° C.): 100%
3 | D I F L V R: point mutation of VIFLVR, position 1 (DIFLVR) | – | – | – | % of Total A1PI Eluted by Fraction (Based on Absorbance at 280 nm), 1M NaCl (VIFLVR point mutations, 4° C.): 6%; % of Total A1PI Eluted by Fraction (Based on Absorbance at 280 nm), 2% Acetic Acid (VIFLVR point mutations, 4° C.): 10%; % of Total A1PI Eluted by Fraction (Based on Absorbance at 280 nm), Flowthrough (VIFLVR point mutations, 4° C.): 84%; % of Total A1PI Eluted by Fraction (Based on Absorbance at 280 nm), 1M NaCl (VIFLVR point mutations, 20° C.): 9%; % of Total A1PI Eluted by Fraction (Based on Absorbance at 280 nm), 2% Acetic Acid (VIFLVR point mutations, 20° C.): 21%; % of Total A1PI Eluted by Fraction (Based on Absorbance at 280 nm), Flowthrough (VIFLVR point mutations, 20° C.): 70%
4 | DDWLVR: point mutation of VIWLVR on Ala-Totda-Toyopearl (not fully specified (C-terminus)) | 0% | 1% | 99% | –
5 | DHWLVR: point mutation of VIWLVR on Ala-Totda-Toyopearl (not fully specified (C-terminus)) | 37% | 10% | 53% | –
6 | DNWLVR: point mutation of VIWLVR on Ala-Totda-Toyopearl (not fully specified (C-terminus)) | 9% | 1% | 90% | –
7 | DSWLVR: point mutation of VIWLVR on Ala-Totda-Toyopearl (not fully specified (C-terminus)) | 10% | 0% | 90% | –
8 | HDWLVR: point mutation of VIWLVR on Ala-Totda-Toyopearl (not fully specified (C-terminus)) | 30% | 0% | 70% | –
9 | HHWLVR: point mutation of VIWLVR on Ala-Totda-Toyopearl (not fully specified (C-terminus)) | 86% | 14% | 0% | –
10 | HNWLVR: point mutation of VIWLVR on Ala-Totda-Toyopearl (not fully specified (C-terminus)) | 92% | 8% | 0% | –
11 | HSWLVR: point mutation of VIWLVR on Ala-Totda-Toyopearl (not fully specified (C-terminus)) | 89% | 11% | 0% | –
12 | IIe Lys Arg Tyr Tyr Leu (IKRYYL) | – | – | – | Percent A1PI Eluted by Fraction Based on Absorbance at 280 nm, 1M NaCl (4° C.): 97%; Percent A1PI Eluted by Fraction Based on Absorbance at 280 nm, 2% Acetic Acid (4° C.): 3%; Percent A1PI Eluted by Fraction Based on Absorbance at 280 nm, Flowthrough (4° C.): 0%; Percent A1PI Eluted by Fraction, 1M NaCl (20° C.): 92%; Percent A1PI Eluted by Fraction, 2% Acetic Acid (20° C.): 8%; Percent A1PI Eluted by Fraction, Flowthrough (20° C.): 0%
13 | IKRYYN | – | – | – | Percent A1PI Eluted by Fraction Based on Absorbance at 280 nm, 1M NaCl (4° C.): 100%; Percent A1PI Eluted by Fraction Based on Absorbance at 280 nm, 2% Acetic Acid (4° C.): 0%; Percent A1PI Eluted by Fraction Based on Absorbance at 280 nm, Flowthrough (4° C.): 0%; Percent A1PI Eluted by Fraction, 1M NaCl (20° C.): 95%; Percent A1PI Eluted by Fraction, 2% Acetic Acid (20° C.): 5%; Percent A1PI Eluted by Fraction, Flowthrough (20° C.): 0%
14 | N I F L V R: point mutation of VIFLVR, position 1 (NIFLVR) | – | – | – | % of Total A1PI Eluted by Fraction (Based on Absorbance at 280 nm), 1M NaCl (VIFLVR point mutations, 4° C.): 25%; % of Total A1PI Eluted by Fraction (Based on Absorbance at 280 nm), 2% Acetic Acid (VIFLVR point mutations, 4° C.): 75%; % of Total A1PI Eluted by Fraction (Based on Absorbance at 280 nm), Flowthrough (VIFLVR point mutations, 4° C.): 0%
15 | NDWLVR: point mutation of VIWLVR on Ala-Totda-Toyopearl (not fully specified (C-terminus)) | 0% | 0% | 100% | –
16 | NHWLVR: point mutation of VIWLVR on Ala-Totda-Toyopearl (not fully specified (C-terminus)) | 83% | 17% | 0% | –
17 | NNWLVR: point mutation of VIWLVR on Ala-Totda-Toyopearl (not fully specified (C-terminus)) | 13% | 4% | 83% | –
18 | NSWLVR: point mutation of VIWLVR on Ala-Totda-Toyopearl (not fully specified (C-terminus)) | 43% | 5% | 52% | –
19 | NWKRVR | – | – | – | Percent A1PI Eluted by Fraction Based on Absorbance at 280 nm, 1M NaCl (4° C.): 95%; Percent A1PI Eluted by Fraction Based on Absorbance at 280 nm, 2% Acetic Acid (4° C.): 5%; Percent A1PI Eluted by Fraction Based on Absorbance at 280 nm, Flowthrough (4° C.): 0%; Percent A1PI Eluted by Fraction, 1M NaCl (20° C.): 93%; Percent A1PI Eluted by Fraction, 2% Acetic Acid (20° C.): 7%; Percent A1PI Eluted by Fraction, Flowthrough (20° C.): 0%
20 | RRKYLW | – | – | – | Percent A1PI Eluted by Fraction Based on Absorbance at 280 nm, 1M NaCl (4° C.): 92%; Percent A1PI Eluted by Fraction Based on Absorbance at 280 nm, 2% Acetic Acid (4° C.): 8%; Percent A1PI Eluted by Fraction Based on Absorbance at 280 nm, Flowthrough (4° C.): 0%; Percent A1PI Eluted by Fraction, 1M NaCl (20° C.): 82%; Percent A1PI Eluted by Fraction, 2% Acetic Acid (20° C.): 18%; Percent A1PI Eluted by Fraction, Flowthrough (20° C.): 0%
21 | SDWLVR: point mutation of VIWLVR on Ala-Totda-Toyopearl (not fully specified (C-terminus)) | 1% | 1% | 98% | –
22 | SHWLVR: point mutation of VIWLVR on Ala-Totda-Toyopearl (not fully specified (C-terminus)) | 87% | 13% | 0% | –
23 | SNWLVR: point mutation of VIWLVR on Ala-Totda-Toyopearl (not fully specified (C-terminus)) | 95% | 5% | 0% | –
